{"source": "patent US7041871", "target": "T1, recombinant soluble human CD4 (human, UniProt P01730 26-396, limits assumed)", "T1 construct": "Soluble recombinant CD4 used for ELISA and SPR/BIAcore; also called rCD4; sCD4", "experiment": "BIAcore; rCD4 coupled to chip, mAb flowed (avidity)", "experimental": "The rate and equilibrium constants presented in Table 19 were determined with a BIAcore, using antigen (rCD4) coupled to the sensor chip and flowing mAb over. These constants were derived from at least three independent experiments using purified mAbs."}
{"binder": "6G5.1 (antibody, human IgG1, V domains shown, Human IgG1 kappa from a hybridoma of an HC2/KCo5 mouse; VH4-34/JH5, VkL19/Jk2; also called GGS) VH: QVQLQQWGAGLLKPSETLSLTCAVYGGSFSGYYWSWIRQPPGKGLEWIGEINHSGSTNYNPSLKSRVTISVDTSKNQFSLKLSSVTAADTAVYYCARVINWFDPWGQGTLVTVSS VL: DIQMTQSPSSVSASVGDRVTITCRASQDISSWLAWYQHKPGKAPKLLIYAASSLQSGVPSRFSGSGSGTDFTLTISSLQPEDFATYYCQQANSFPYTFGQGTKLEIK", "values": [{"measurement": "kon", "value": 11000, "unit": "M⁻¹ s⁻¹"}]}
